Experimental data: publication PMC3807708

Legend:
[1] = biological target: extracellular domain of human interferon-γ receptor 1 (IFN-γ-Rx), wild type (human) (UniProt P15260); assay: SPR; His-tagged receptor immobilised on Ni2+-coated HTG chip; IFN-γ-SC as analyte; PBST; 20 °C; preliminary data of temperature dependency
[2] = biological target: extracellular domain of human interferon-γ receptor 1 (IFN-γ-Rx), mutant H222R (human) (UniProt P15260); assay: as above
[3] = biological target: extracellular domain of human interferon-γ receptor 1 (IFN-γ-Rx), mutant S95R (human) (UniProt P15260); assay: as above
[4] = biological target: extracellular domain of human interferon-γ receptor 1 (IFN-γ-Rx), mutant N70G (human) (UniProt P15260); assay: as above
[5] = biological target: extracellular domain of human interferon-γ receptor 1 (IFN-γ-Rx), mutant N96W (human) (UniProt P15260); assay: as above
[6] = biological target: extracellular domain of human interferon-γ receptor 1 (IFN-γ-Rx), wild type (human) (UniProt P15260); assay: SPR; His-tagged receptor immobilised on Ni2+-coated HTG chip; IFN-γ-SC as analyte; PBST; 25 °C; preliminary data of temperature dependency
[7] = biological target: extracellular domain of human interferon-γ receptor 1 (IFN-γ-Rx), mutant H222R (human) (UniProt P15260); assay: as above
[8] = biological target: extracellular domain of human interferon-γ receptor 1 (IFN-γ-Rx), mutant S95R (human) (UniProt P15260); assay: as above
[9] = biological target: extracellular domain of human interferon-γ receptor 1 (IFN-γ-Rx), mutant N96W (human) (UniProt P15260); assay: as above
[10] = biological target: extracellular domain of human interferon-γ receptor 1 (IFN-γ-Rx), wild type (human) (UniProt P15260); assay: SPR; ProteOn XPR36; His-tagged receptor immobilised on Ni2+-activated HTG chip; IFN-γ-SC as analyte, 1.2 to 99 nM; PBST (PBS pH 7.4, 0.005% Tween20); 25°C; 1:1 Langmuir with drift model; doubly referenced
IFN-γ-Rx T166Y (human) = IFN-γ-Rx T166Y (human) (UniProt P15260); assay: as above
[11] = biological target: IFN-γ-Rx N70G + H222R (human) (UniProt P15260); assay: as above
IFN-γ-Rx H222R (human) = IFN-γ-Rx H222R (human) (UniProt P15260); assay: as above
IFN-γ-Rx N65R (human) = IFN-γ-Rx N65R (human) (UniProt P15260); assay: as above
[12] = biological target: extracellular domain of human interferon-γ receptor 1 (IFN-γ-Rx), wild type (human) (UniProt P15260); assay: SPR; His-tagged receptor immobilised on Ni2+-coated HTG chip; IFN-γ-SC as analyte; PBST; 35 °C; preliminary data of temperature dependency
[13] = biological target: extracellular domain of human interferon-γ receptor 1 (IFN-γ-Rx), mutant H222R (human) (UniProt P15260); assay: as above
[14] = biological target: extracellular domain of human interferon-γ receptor 1 (IFN-γ-Rx), mutant S95R (human) (UniProt P15260); assay: as above
[15] = biological target: extracellular domain of human interferon-γ receptor 1 (IFN-γ-Rx), mutant N70G (human) (UniProt P15260); assay: as above
[16] = biological target: extracellular domain of human interferon-γ receptor 1 (IFN-γ-Rx), mutant N96W (human) (UniProt P15260); assay: as above

Kd [1]: 21.7 nM | Kd [2]: 19.4 nM | Kd [3]: 44.4 nM | Kd [4]: 17.3 nM | Kd [5]: 5.28 nM | Kd [6]: 30.5 nM | Kd [7]: 30.1 nM | Kd [8]: 69.4 nM | Kd [9]: 6.1 nM | Kd [10]: 30.8 nM | koff [10]: 0.0378 s⁻¹ | kon [10]: 1.24e+06 M⁻¹ s⁻¹ | Kd (IFN-γ-Rx T166Y (human)): 83.1 nM | koff (IFN-γ-Rx T166Y (human)): 0.0782 s⁻¹ | kon (IFN-γ-Rx T166Y (human)): 940000 M⁻¹ s⁻¹ | Kd [11]: 26.9 nM | koff [11]: 0.0391 s⁻¹ | kon [11]: 1.46e+06 M⁻¹ s⁻¹ | Kd (IFN-γ-Rx H222R (human)): 29.4 nM | koff (IFN-γ-Rx H222R (human)): 0.0349 s⁻¹ | kon (IFN-γ-Rx H222R (human)): 1.19e+06 M⁻¹ s⁻¹ | Kd (IFN-γ-Rx N65R (human)): 71.2 nM | koff (IFN-γ-Rx N65R (human)): 0.0628 s⁻¹ | kon (IFN-γ-Rx N65R (human)): 882000 M⁻¹ s⁻¹ | Kd [12]: 92.8 nM | Kd [13]: 103 nM | Kd [14]: 153 nM | Kd [15]: 77 nM | Kd [16]: 24.3 nM
Substance: single-chain form of human interferon-γ (IFN-γ-SC) (ligand)
